Reference: patent publication US20220017605A1 (ICAHN SCHOOL OF MEDICINE AT MOUNT SINAI, published 2022)
Several values for one entry are separate records, joined by “and”; a condition that tells them apart may be missing. Equal values may be shown once.

Key:
[1] = target: recombinant NS1 protein of Zika virus PRVABC59 (2015/Puerto Rico) with C-terminal hexahistidine tag (Example … (Zika virus PRVABC59, UniProt A0A024B7W1 795-1146))
[2] = target: recombinant NS1 protein of Zika virus MR766 (Rhesus/1947/Uganda) with C-terminal hexahistidine tag (Zika virus MR766, UniProt Q32ZE1 791-1142)
Chain of recombinant NS1 protein of Zika virus MR766 (Rhesus/1947/Uganda) with C-terminal hexahistidine tag (Q32ZE1 791-1142, tags left off): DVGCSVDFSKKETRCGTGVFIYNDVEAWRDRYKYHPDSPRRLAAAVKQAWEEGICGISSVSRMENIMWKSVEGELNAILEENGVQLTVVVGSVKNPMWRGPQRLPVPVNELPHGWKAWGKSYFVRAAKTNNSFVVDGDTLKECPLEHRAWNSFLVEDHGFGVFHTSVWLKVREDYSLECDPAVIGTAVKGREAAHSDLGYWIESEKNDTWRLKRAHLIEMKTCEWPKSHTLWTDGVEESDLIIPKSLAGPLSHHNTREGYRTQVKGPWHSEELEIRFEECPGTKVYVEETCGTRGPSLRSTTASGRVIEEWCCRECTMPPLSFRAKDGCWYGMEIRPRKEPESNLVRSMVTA

Chain of recombinant NS1 protein of Zika virus PRVABC59 (2015/Puerto Rico) with C-terminal hexahistidine tag (Example … (A0A024B7W1 795-1146, tags left off): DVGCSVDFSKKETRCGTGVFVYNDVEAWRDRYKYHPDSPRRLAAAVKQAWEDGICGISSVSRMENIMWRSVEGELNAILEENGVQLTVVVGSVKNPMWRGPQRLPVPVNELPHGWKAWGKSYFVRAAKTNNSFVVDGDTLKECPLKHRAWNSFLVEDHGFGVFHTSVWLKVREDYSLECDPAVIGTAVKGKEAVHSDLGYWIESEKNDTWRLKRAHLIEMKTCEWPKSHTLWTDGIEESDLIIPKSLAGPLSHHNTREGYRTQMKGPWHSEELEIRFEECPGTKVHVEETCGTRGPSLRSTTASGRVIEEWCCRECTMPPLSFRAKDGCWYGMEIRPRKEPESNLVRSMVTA

B1: human monoclonal antibody AA12 (antibody, V domains shown)
VH: EVQLVESGGGLIQPGGSLRLSCAASGFTVSSNYMSWVRQAPGKGLEWVSVIYSGGSTYYADSVKGRFTISRDNSKNTLYLQMNSLRAEDTAVYYCARDRRGFDYWGQGTMVTVSS
VL: DIQMTQSPLSLSASVGDRVTITCRTSQSISSYLNWYQQKPGKAPKLLIYAASSLQSGVPSRFSGSGSGTDFTLTISSLQPEDFATYYCQQTYSTPLTFGGGTKVEIK
- Kd [1]: 147 nM and 76.1 nM
- Kd [2]: 55.4 nM and 99.8 nM
